Columns and labels:
purified protein [1] = substrate: Nc1ncnc2c1ncn2[C@@H]1O[C@H](COP(=O)(O)OP(=O)(O)OP(=O)(O)O)[C@@H](O)[C@H]1O; test: purified protein; conditions: 5 mM NAD+, 40 mM MgCl2, 100 mM Tris-HCl pH 8.0, 37 °C
purified protein [2] = substrate: NC(=O)c1ccc[n+]([C@@H]2O[C@H](COP(=O)(O)OP(=O)(O)OC[C@H]3O[C@@H](n4cnc5c(N)ncnc54)[C@H](O)[C@@H]3O)[C@@H](O)[C@H]2O)c1; test: purified protein; conditions: ATP as donor, 20 mM MgCl2, 100 mM Tris-HCl pH 8.0, 37 °C
SEC = target: the molecule itself; test: SEC

B1: purified C5orf33 protein (His-tagged Δ62C5orf33 protein) (enzyme, human, UniProt Q4G0N4-1 63-442, looked up)
chain: DGGFRPSRVVVVAKTTRYEFEQQRYRYAELSEEDLKQLLALKGSSYSGLLERHHIHTKNVEHIIDSLRNEGIEVRLVKRREYDEETVRWADAVIAAGGDGTMLLAASKVLDRLKPVIGVNTDPERSEGHLCLPVRYTHSFPEALQKFYRGEFRWLWRQRIRLYLEGTGINPVPVDLHEQQLSLNQHNRALNIERAHDERSEASGPQLLPVRALNEVFIGESLSSRASYYEISVDDGPWEKQKSSGLNLCTGTGSKAWSFNINRVATQAVEDVLNIAKRQGNLSLPLNRELVEKVTNEYNESLLYSPEEPKILFSIREPIANRVFSSSRQRCFSSKVCVRSRCWDACMVVDGGTSFEFNDGAIASMMINKEDELRTVLLEQ
- Km (purified protein [1]): 1700 ± 300 µM
- Km (purified protein [2]): 22 ± 1 µM
- stoichiometry N (SEC): 2

— publication PMC3535332 (Nature Communications, 2012)
